Experimental data: paper PMC11096414

Target: Flag-tagged MAVS wt, Q7Z434
Test: co-IP
Settings: remark: other sources report otherwise

Flag-tagged MAVS wt, Q7Z434, sequence (Q7Z434 whole entry): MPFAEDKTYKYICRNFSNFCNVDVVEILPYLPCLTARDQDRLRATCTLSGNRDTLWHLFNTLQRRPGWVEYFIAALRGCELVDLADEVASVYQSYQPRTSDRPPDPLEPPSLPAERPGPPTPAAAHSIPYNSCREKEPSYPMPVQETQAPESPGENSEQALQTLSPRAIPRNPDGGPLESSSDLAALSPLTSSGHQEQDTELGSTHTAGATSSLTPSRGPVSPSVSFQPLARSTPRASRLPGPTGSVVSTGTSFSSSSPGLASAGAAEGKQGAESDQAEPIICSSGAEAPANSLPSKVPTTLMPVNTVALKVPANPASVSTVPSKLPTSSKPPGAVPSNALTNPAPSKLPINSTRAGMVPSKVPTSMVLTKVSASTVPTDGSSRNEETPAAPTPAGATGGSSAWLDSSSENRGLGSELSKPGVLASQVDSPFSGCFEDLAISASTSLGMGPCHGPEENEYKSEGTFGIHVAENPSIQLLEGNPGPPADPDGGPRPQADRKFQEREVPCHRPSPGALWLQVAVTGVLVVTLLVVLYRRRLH

B1: GFP-tagged TBK1, Q9UHD2 1-729 (enzyme)
chain: MQSTSNHLWLLSDILGQGATANVFRGRHKKTGDLFAIKVFNNISFLRPVDVQMREFEVLKKLNHKNIVKLFAIEEETTTRHKVLIMEFCPCGSLYTVLEEPSNAYGLPESEFLIVLRDVVGGMNHLRENGIVHRDIKPGNIMRVIGEDGQSVYKLTDFGAARELEDDEQFVSLYGTEEYLHPDMYERAVLRKDHQKKYGATVDLWSIGVTFYHAATGSLPFRPFEGPRRNKEVMYKIITGKPSGAISGVQKAENGPIDWSGDMPVSCSLSRGLQVLLTPVLANILEADQEKCWGFDQFFAETSDILHRMVIHVFSLQQMTAHKIYIHSYNTATIFHELVYKQTKIISSNQELIYEGRRLVLEPGRLAQHFPKTTEENPIFVVSREPLNTIGLIYEKISLPKVHPRYDLDGDASMAKAITGVVCYACRIASTLLLYQELMRKGIRWLIELIKDDYNETVHKKTEVVITLDFCIRNIEKTVKVYEKLMKINLEAAELGEISDIHTKLLRLSSSQGTIETSLQDIDSRLSPGGSLADAWAHQEGTHPKDRNVEKLQVLLNCMTEIYYQFKKDKAERRLAYNEEQIHKFDKQKLYYHATKAMTHFTDECVKKYEAFLNKSEEWIRKMLHLRKQLLSLTNQCFDIEEEVSKYQEYTNELQETLPQKMFTASSGIKHTMTPIYPSSNTLVEMTLGMKKLKEEMEGVVKELAENNHILERFGSLTMDGGLRNVDCL
fold reduction of the co-precipitate in the presence of 4-OI (against no 4-OI): 3.7 fold

B2: GFP-tagged RIG-I, O95786 1-925 (natural protein)
chain: MTTEQRRSLQAFQDYIRKTLDPTYILSYMAPWFREEEVQYIQAEKNNKGPMEAATLFLKFLLELQEEGWFRGFLDALDHAGYSGLYEAIESWDFKKIEKLEEYRLLLKRLQPEFKTRIIPTDIISDLSECLINQECEEILQICSTKGMMAGAEKLVECLLRSDKENWPKTLKLALEKERNKFSELWIVEKGIKDVETEDLEDKMETSDIQIFYQEDPECQNLSENSCPPSEVSDTNLYSPFKPRNYQLELALPAMKGKNTIICAPTGCGKTFVSLLICEHHLKKFPQGQKGKVVFFANQIPVYEQQKSVFSKYFERHGYRVTGISGATAENVPVEQIVENNDIIILTPQILVNNLKKGTIPSLSIFTLMIFDECHNTSKQHPYNMIMFNYLDQKLGGSSGPLPQVIGLTASVGVGDAKNTDEALDYICKLCASLDASVIATVKHNLEELEQVVYKPQKFFRKVESRISDKFKYIIAQLMRDTESLAKRICKDLENLSQIQNREFGTQKYEQWIVTVQKACMVFQMPDKDEESRICKALFLYTSHLRKYNDALIISEHARMKDALDYLKDFFSNVRAAGFDEIEQDLTQRFEEKLQELESVSRDPSNENPKLEDLCFILQEEYHLNPETITILFVKTRALVDALKNWIEGNPKLSFLKPGILTGRGKTNQNTGMTLPAQKCILDAFKASGDHNILIATSVADEGIDIAQCNLVILYEYVGNVIKMIQTRGRGRARGSKCFLLTSNAGVIEKEQINMYKEKMMNDSILRLQTWDEAVFREKILHIQTHEKFIRDSQEKPKPVPDKENKKLLCRKCKALACYTADVRVIEECHYTVLGDAFKECFVSRPHPKPKQFSSFEKRAKIFCARQNCSHDWGIHVKYKTFEIPVIKIESFVVEDIATGVQTLYSKWKDFHFEKIPFDPAEMSK
fold reduction of the co-precipitate in the presence of 4-OI (against no 4-OI): 1.6 fold
